Measurements taken from US20220259593A1, “CONTROL OF MAMMALIAN GENE DOSAGE USING CRISPR” (The Regents of the University of California, priority 2019, published 2022).
Numbering of substitutions follows the chain as printed.

B1: cr171 (nucleic acid)
guide: GTTTAAGAGCTAAGCTGGAAACAGCATAGCAAGTTTAAATAAGGCTAGTCCGTTATCAACCTGAGAAGGTGGCACCGAGTCGGTGCT
modifications: listed as DNA, chemistry not fully specified
B2: cr809 (nucleic acid)
guide: B1 guide with C61G, G65A, G68C, C73A, G85T
modifications: listed as DNA, chemistry not fully specified
B3: cr772 (nucleic acid)
guide: B1 guide with C61T, T62C, G65A, A67G, G68A
modifications: listed as DNA, chemistry not fully specified
B4: cr721 (nucleic acid)
guide: B1 guide with T53C, C57T, C61T, G65A, G68A, G79A
modifications: listed as DNA, chemistry not fully specified
B5: cr485 (nucleic acid)
guide: B1 guide with A47T, C61T, G65A, G68A, G71T, A78T
modifications: listed as DNA, chemistry not fully specified
B6: cr486 (nucleic acid)
guide: B1 guide with C61T, G65A, G68A, G72A, C73A, C76T, G82A, G85T, C86T
modifications: listed as DNA, chemistry not fully specified
B7: cr866 (nucleic acid)
guide: B1 guide with C61T, G65A, G68A, G72T, A74C
modifications: listed as DNA, chemistry not fully specified
B8: cr904 (nucleic acid)
guide: B1 guide with G44T, C50A, C60T, C61T, G65A, G68A, G69A, C75A, G83T
modifications: listed as DNA, chemistry not fully specified
B9: cr668 (nucleic acid)
guide: B1 guide with C60G, C61T, G65A, G68A
modifications: listed as DNA, chemistry not fully specified
B10: cr318 (nucleic acid)
guide: B1 guide with A42T, C61T, G65T, G68A
modifications: listed as DNA, chemistry not fully specified
B11: cr728 (nucleic acid)
guide: B1 guide with A58G, C61T, G65C, G68A
modifications: listed as DNA, chemistry not fully specified
B12: cr425 (nucleic acid)
guide: B1 guide with A59T, G65A, G68T, T70C
modifications: listed as DNA, chemistry not fully specified
B13: cr736 (nucleic acid)
guide: B1 guide with T34A, C61T, G65A, G68A, T87A
modifications: listed as DNA, chemistry not fully specified
B14: cr040 (nucleic acid)
guide: B1 guide with G1A, A6C, C61T, G65A, G68A
modifications: listed as DNA, chemistry not fully specified
B15: cr460 (nucleic acid)
guide: B1 guide with C45G, G48C, C61T, G65A, G68A, A74T, C76A, G82T, T84A
modifications: listed as DNA, chemistry not fully specified
B16: cr775 (nucleic acid)
guide: B1 guide with A31G, G33T, C61T, G65A, G68A
modifications: listed as DNA, chemistry not fully specified
B17: cr566 (nucleic acid)
guide: B1 guide with T34C, C61A, G65A, G68T
modifications: listed as DNA, chemistry not fully specified
B18: cr148 (nucleic acid)
guide: B1 guide with T34C, C61T, G65A, G68A, A74G, T84C
modifications: listed as DNA, chemistry not fully specified
B19: cr165 (nucleic acid)
guide: B1 guide with G43A, C51T, C61T, T62C, G65A, A67G, G68A, G72T, C86A
modifications: listed as DNA, chemistry not fully specified
B20: cr385 (nucleic acid)
guide: B1 guide with C61T, G65A, G68A, A74C, C75A, G77C, C81G, G83T, T84G
modifications: listed as DNA, chemistry not fully specified
B21: cr126 (nucleic acid)
guide: B1 guide with G33A, A47C, C61T, G63T, G65A, G68A
modifications: listed as DNA, chemistry not fully specified
B22: cr405 (nucleic acid)
guide: B1 guide with C61T, G65A, G68A, G72T, C75G, G77A, C81T, G83C, C86A
modifications: listed as DNA, chemistry not fully specified
B23: cr758 (nucleic acid)
guide: B1 guide with T34C, T53C, C61T, G65A, G68A
modifications: listed as DNA, chemistry not fully specified
B24: cr873 (nucleic acid)
guide: B1 guide with T34C, C61T, T62A, G65A, A67T, G68A
modifications: listed as DNA, chemistry not fully specified
B25: cr163 (nucleic acid)
guide: B1 guide with T34C, C61T, G65A, G68A
modifications: listed as DNA, chemistry not fully specified
B26: cr920 (nucleic acid)
guide: B1 guide with A55G, T56A, A58T, C61T, G65A, G68A
modifications: listed as DNA, chemistry not fully specified
B27: cr794 (nucleic acid)
guide: B1 guide with C61T, G65A, G68A, G72C, C76G, G82C, C86G
modifications: listed as DNA, chemistry not fully specified
B28: cr799 (nucleic acid)
guide: B1 guide with C51T, C61T, G65A, G68A
modifications: listed as DNA, chemistry not fully specified
B29: cr955 (nucleic acid)
guide: B1 guide with G48A, C61T, G65A, G68A
modifications: listed as DNA, chemistry not fully specified
B30: cr868 (nucleic acid)
guide: B1 guide with T36C, C61T, G65A, G68A
modifications: listed as DNA, chemistry not fully specified

tested on: K562 CRISPRi cells; assay: Constant region variant library pooled growth screen, K562; assay type: cell-based, human; details: sgRNA constant region variants; activity relative to the original, un-modified constant region cr995
Summary of the method: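 Relative activity expresses each targeting sequence:constant region pair's phenotype over that of the unmodified constant region. Pooled growth screen ran in K562 CRISPRi cells in duplicate spinner-flask replicates, with puromycin selection and 4–8 days' growth at >2000× coverage; library paired variants with 36 targeting sequences.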

Molecule | Mean relative activity
B1 | 1.044
B2 | 1.042
B3 | 1.099

same assay, conditions: sgRNA constant region variants; relative to the original, un-modified constant region cr995; CRISPRi

Molecule | Mean relative activity
B4 | 0.4696
B5 | 0.4419
B6 | 0.4409
B7 | 0.4434
B8 | 0.4677
B9 | 0.4445
B10 | 0.4269
B11 | 0.4155
B12 | 0.4409
B13 | 0.4208
B14 | 0.4233
B15 | 0.4381
B16 | 0.4052
B17 | 0.4299
B18 | 0.4276
B19 | 0.4224
B20 | 0.4186
B21 | 0.4034
B22 | 0.4582
B23 | 0.4614
B24 | 0.4546
B25 | 0.4662
B26 | 0.4567
B27 | 0.411
B28 | 0.4031
B29 | 0.4541
B30 | 0.4517
